Assay results from the DeepSol protein solubility set.

Test: soluble on expression in E. coli; label from the status in PepcDB or PDB records

Sequence | soluble on expression in E. coli
SPCDTNWRYYGDSCYGFFRHNLTWEESKQYCTDMNATLLKIDNRNIVEYIKARTHLIRWVGLSRQKSNEVWKWEDGSVISENMFEFLEDGKGNMNCAYFHNGKMHPTFCENKHYLMCERKAG | soluble
SPLHVSLANGNRDLDYDSVQPYFMCDDEEEDVHHQQPPQPPAPSEDIWKKFELLPTPRPSPGHAGLYSPPCEAVAVSFAPRDHDGDSFSIADLPELPGGDAVKQSFVCDPDDETFVKNIILQDCMWNGFSASAKLVSKLDPYQAVRKEGTGVSLAADVEPATPPDCTCNT | soluble
SPPIGNQLGALVHQRTVITEEFKVPDKMVGFIIGRGGEQISRIQAESGCKIQIASESSGIPERPCVLTGTPESIEQAKRLLGQIVDRCRNGPGFHNDIDSNSTIQEILIPASKVGLVIGRGGETIKQLQERTGVKMVMIQDGPLPTGADKPLRITGDAFKVQQAREMVLEIIREKDQADFRGVRGDFNSRMGGGSIEVSVPRFAVGIVIGRNGEMIKKIQNDAGVRIQFKPDDGISPEYYRQQVAFYGQTLGQAQAHSQEQ | soluble
SPPNLTPAQSNRVCNSLALLQCVASHSDTRMLFLKAHIPLYLYPFLNTTSKSRPFEYLRLTSLGVIGALVKVDDTEVISFLLSTEIIPLCLRTMEMGSELSKTVATFIVQKILLDDVGMDYICTTAERFFAVGRVLGNMVQSLVEQPSPRLLKHIIRCYLRLSDNPRACAALASCLPDSLRDGSFSNCLREDPTARRWLQQLVHNVGVGRVPTHQGGGFEHML | not soluble
SPSETLWEIAKAEVEKRGINGSEGDGAEIAEKFVFFIGSKNGGKTTIILRCLDRDEPPKPTLALEYTYGRRAKGHNTPKDIAHFWELGGGTSLLDLISIPITGDTLRTFSLVLVLDLSKPNDLWPTMENLLQATKSHVDKVIMKLGKTNAKAVSEMRQKIWNNMPKDHPQDHELIDPFPVPLVIIGSKYDVFQDFESEKRKVICKTLRFVAHYYGASLMFTSKSEALLLKIRGVINQLAFGIDKSKSICVDQNKPLFITAGLDSFGQIGSPPVPENDIGKLHAHSPMELWKKVYEKLFPPKSINTLKDIKDPARDPQYAENEVDEMRIQKDLELEQYKRSSSKSWKQIELDS | soluble
SPYVFSFKMPQEQGQMFQYYPVYMVLPWEQPQQTVPRSPQQTRQQQYEEQIPFYAQFGYIPQLAEPAISGGQQQLAFDPQLGTAPEIAVMSTGEEIPYLQKEAINFRHDSAGVFMPSTSPKPSTTNVFTSAVDQTITPELPEEKDKTDSLREP | soluble
SQDPSGDKVCRAGGEEDGEDGQHTSRVHDTEADPHHTEASSHRTEGSSHLTETSSRPSEAENGHDNSPHVNRAQDVGTQASPQGSLNSRVPVEARVVVEEAAIAPQGEQAPIIPGPSGDAATTAGSRLLEFSVTVPFRTAVEANIACRTLASNIQQQQVMVQQEFTVNDTILTVRWTTEDPVLFRTSINAFLDQLSLVVRNIPRPVFMAVFKQGRGRNN | soluble
SQEIVAGELERCFLAMPESVLPIVTMEERNDLCRRAGHLSGFTHTASLESSLGGTVTFLLNRNFIRIQTSTVGEVFMRILPFSDSSSVICVVTTVLHPVADSRIDFYTTEWKPLKTDRFWQQPRIEDFFLPHTDRQSYAYQAIYASLTPSYMQVSLSEESDTLSIRQTVTETLAEEEKPLAAIFLSPEPLVYRWQSGRFVRQVR | soluble
SQTLRIGYVSSLLYGLLPEIIYLFRQQNPEIHIELIECGTKDQINALKQGKIDLGFGRLKITDPAIRHIVLHKEQLKLAIHKHHHLNQFAATGVHLSQIIDEPMLLYPVSQKPNFATFIQSLFTELGLVPSKLTEIREIQLALGLVAAGEGVCIVPASAMDIGVKNLLYIPILDDDAYSPISLAVRNMDHSNYIPKILACVQEVFATHHIRPLIESILEHHHHHH | soluble
SRTVIPGAVKYTLVYDNGSSQAVIATAPEITPTELEATLRQAASHLYSYGRLGSRGNNQLTIRARTIIHAEPGVSVPVYLGKVQRTLTTREDPEMAVEVYLDKFAQLSKPTA | not soluble
SSASDGFKANLVFKEIEKKLEEEGEQFVKKIGGIFAFKVKDGPGGKEATWVVDVKNGKGSVLPNSDKKADCTITMADSDFLALMTGKMNPQSAFFQGKLKITGNMGLAMKLQNLQLQPGNAKL | soluble
SSESESGGDFHEMREPRIEKVVVHMGIGHGGRDLANAEDILGEITGQMPVRTKAKRTVGEFDIREGDPIGAKVTLRDEMAEEFLQTALPLAELATSQFDDTGNFSFGVEEHTEFPSQEYDPSIGIYGLDVTVNLVRPGYRVAKRDKASRSIPTKHRLNPADAVAFIESTYDVEVSE | soluble
